Laboratory results reported in patent EP4741426A1.

Target: CD215 (IL-15Rα), CD122 (IL-15Rβ), and CD132 (IL-15Rγ) proteins expressed together on the HEK Blue cell line
Experiment: cell-based or functional assay

EC50 (nM), SEAP reporter at 620 nm, HEK Blue cell line: 0.007 nM
Substance: Wild-type IL-2 (from UniProt P60568 21-153) (ligand)
